Data as given in publication PMC7010297, “How the initiating ribosome copes with ppGpp to translate mRNAs” (PLoS Biology, 2020).
Values joined by “and” are separate entries in the source; they are usually repeats but may differ in a detail not shown here. Identical values can stand only once. Like-named read-outs stand apart in the source and are kept apart here.

Test system: 30S subunit (30S IC)
Assay: 30S IC formation by MST, mRNA titration
Type: binding, Escherichia coli
Details: for MST Average / MST Replicates (a.u.): Fig 3B; for Kd: Fig 3C, from mRNA titration of 30S IC formation; for 30S IC formation MST signal, Average / 30S IC formation MST signal, replicates: Fig 6D
Text: Fig 1 Bacterial stringent response and experimental approach. (A) Schematics representing the onset of stringent response, (p)ppGpp accumulation, and gene expression regulation. Translation of stress-related mRNAs upon (p)ppGpp accumulating is the focus of the investigation (indicated as the red question mark). (B) Schematics of instrumentation for measuring 30S initiation complex (IC) by fluorescence Microscale Thermophoresis (MST) (provided by Nanotemper Technologies). […] Fluorophore excitation and measurement of the emitted fluorescence, together with IR-mediated perturbation of the equilibrium, are achieved through an objective and dichroic mirror. (C) Time courses of fluorescence showing the equilibrium relaxation upon thermal perturbation at varying ligand concentrations. Blue vertical lines indicate the fluorescence signal readout prior to the equilibrium perturbation (Fi), while vertical red lines indicate the fluorescence signal upon reaching the new equilibrium (Ff). Colored traces represent different concentrations of the titrating mRNA (0.1 to 4 μM). The ratio between the Ff over Fi times 1,000 is the normalized thermophoresis shift (MST). The dependency of MST shift on ligand concentration allows to estimate KD constants of the interaction using a hyperbolic or quadratic function and nonlinear regression fitting. MST measurements (closed circles) are indicated in the same colors as their respective time traces in (C). (D) Formation of 30S IC measured by MST. Time traces of thermophoresis (S1 Fig) were used to calculate MST values for all four combinations of mRNA start codons and labeled tRNAs for dependencies on mRNA concentration. […] Closed symbols indicate that Bpy-Met-tRNA^fMet was used, while open symbols correspond to Bpy-Phe-tRNA^Phe. Continuous lines indicate nonlinear regression fittings. Three to four measurements were performed; mean and error bars representing standard deviations are plotted (S1 Data).
To monitor the interaction of initiator tRNA and 30S ribosomal subunits, we used Microscale Thermophoresis (MST) with a fluorescently labelled initiator tRNA (Bpy-tRNAi) (Fig 1B). MST allows to measure fluorescence in a constrained space. Changes on the readout derive from molecular drifts resulting from small thermal equilibrium perturbations. Upon equilibrium perturbations, the patterns of Bpy-tRNAi migration away from the observation space are related to bound and unbound states (Fig 1B). […] On the contrary, a decrease in thermophoresis indicated the dissociation of Bpy-tRNAi. The relation between fluorescence measured at both equilibriums (Ff to Fi, after and prior to the perturbation, respectively) as a function of ligand concentration allowed to determine dissociation constants of the interaction (Fig 1C).
By observing the bound state of Bpy-tRNAi to the 30S subunit, MST could be measuring either IC, 30S pre-IC, or 30S IC, as they are identical in terms of ligand composition. […] To unambiguously assign which step is monitored by MST, we used different combinations of start codons and fluorescent tRNAs.
MST was calculated from the respective fluorescence time dependencies (S3 Fig). […] Symbols as in (B). […] Continuous lines indicate nonlinear regression fittings with quadratic (B and E) or same-site competition (G) functions. Three measurements were performed; mean and standard deviations are plotted (S1 Data).

[1] = Fig 3D, efficiency of 30S IC formation

B1: mTufA: TufA mRNA with full-length 5′ UTR, in vitro transcribed, codes for EF-Tu (nucleic acid)
chain: GGUUCUAUCGCCUUUAAAGAAGGCUUUAAGAAAGCGAAACCAGUUCUGCUUGAGCCGAUCAUGAAGGUUGAAGUAGAAACUCCGGAAGAGAACACCGGUGACGUUAUCGGUGACUUGAGCCGUCGUCGUGGUAUGCUCAAAGGUCAGGAAUCUGAAGUUACUGGCGUUAAGAUCCACGCUGAAGUACCGCUGUCUGAAAUGUUCGGAUACGCAACUCAGCUGCGUUCUCUGACCAAAGGUCGUGCAUCAUACACUAUGGAAUUCCUGAAGUAUGAUGAAGCGCCGAGUAACGUUGCUCAGGCCGUAAUUGAAGCCCGUGGUAAAUAAGCCUAAGGGUUAAUACCAAAGUCCCGUGCUCUCUCCUGAAGGGGAGAGCACUAUAGUAAGGAAUAUAGCCGUGUCUAAAGAAAAAUUUGAACG
With B1 the “MST Average” value (mRNA 0.004 μM) was 969.58 a.u, the “MST Replicates (a.u.)” value (mRNA 0.004 μM) was 968.54 a.u. and 970.25 a.u. and 969.97 a.u and the “MST Average” value (mRNA 0.008 μM) was 969.59 a.u. The “MST Replicates (a.u.)” value (mRNA 0.008 μM) was 969.28 a.u. and 969.63 a.u. and 969.86 a.u, the “MST Average” value (mRNA 0.016 μM) was 972.78 a.u and the “MST Replicates (a.u.)” value (mRNA 0.016 μM) was 971.79 a.u. and 972.82 a.u. and 973.72 a.u. For the same molecule, the “MST Average” value (mRNA 0.03 μM) was 974.49 a.u, the “MST Replicates (a.u.)” value (mRNA 0.03 μM) was 974.10 a.u. and 974.12 a.u. and 975.24 a.u and the “MST Average” value (mRNA 0.06 μM) was 982.70 a.u. For the same molecule, the “MST Replicates (a.u.)” value (mRNA 0.06 μM) was 982.27 a.u. and 982.61 a.u. and 983.22 a.u, the “MST Average” value (mRNA 0.13 μM) was 997.76 a.u and the “MST Replicates (a.u.)” value (mRNA 0.13 μM) was 996.79 a.u. and 997.90 a.u. and 998.61 a.u. The “MST Average” value (mRNA 0.25 μM) was 1022.60 a.u, the “MST Replicates (a.u.)” value (mRNA 0.25 μM) was 1021.41 a.u. and 1022.36 a.u. and 1024.04 a.u and the “MST Average” value (mRNA 0.50 μM) was 1057.58 a.u. For the same molecule, the “MST Replicates (a.u.)” value (mRNA 0.50 μM) was 1056.44 a.u. and 1057.96 a.u. and 1058.33 a.u, the “MST Average” value (mRNA 1.00 μM) was 1095.54 a.u and the “MST Replicates (a.u.)” value (mRNA 1.00 μM) was 1094.17 a.u. and 1095.62 a.u. and 1096.83 a.u. The “MST Average” value (mRNA 2.00 μM) was 1113.87 a.u, the “MST Replicates (a.u.)” value (mRNA 2.00 μM) was 1113.37 a.u. and 1113.82 a.u. and 1114.42 a.u and the Kd (read-out: Kd (μM) of the mRNA, Average) was 0.19 µM. The Kd (read-out: Kd (μM) of the mRNA, single replicate) was 0.19 µM and 0.18 µM, the “MST Amplitude (a.u.), Average” value [1] was 165.04 a.u and the “MST Amplitude (a.u.), single replicate” value [1] was 165.44 a.u. and 164.97 a.u. and 164.70 a.u. The “30S IC formation MST signal, Average” value (mRNA 0.001 µM) was 934.16, the “30S IC formation MST signal, replicates” value (mRNA 0.001 µM) was 933.97 and 934.33 and 934.18 and the “30S IC formation MST signal, Average” value (mRNA 0.002 µM) was 931.08. The “30S IC formation MST signal, replicates” value (mRNA 0.002 µM) was 929.08 and 931.16 and 933.00, the “30S IC formation MST signal, Average” value (mRNA 0.004 µM) was 929.10 and the “30S IC formation MST signal, replicates” value (mRNA 0.004 µM) was 927.65 and 929.57 and 930.10. For the same molecule, the “30S IC formation MST signal, Average” value (mRNA 0.008 µM) was 927.54, the “30S IC formation MST signal, replicates” value (mRNA 0.008 µM) was 923.84 and 929.70 and 929.07 and the “30S IC formation MST signal, Average” value (mRNA 0.016 µM) was 926.63. The “30S IC formation MST signal, replicates” value (mRNA 0.016 µM) was 924.56 and 926.45 and 928.88, the “30S IC formation MST signal, Average” value (mRNA 0.031 µM) was 928.44 and the “30S IC formation MST signal, replicates” value (mRNA 0.031 µM) was 928.15 and 928.36 and 928.82. For the same molecule, the “30S IC formation MST signal, Average” value (mRNA 0.062 µM) was 934.74, the “30S IC formation MST signal, replicates” value (mRNA 0.062 µM) was 934.59 and 934.05 and 935.59 and the “30S IC formation MST signal, Average” value (mRNA 0.125 µM) was 947.53. The “30S IC formation MST signal, replicates” value (mRNA 0.125 µM) was 949.07 and 946.54 and 946.98, the “30S IC formation MST signal, Average” value (mRNA 0.25 µM) was 962.80 and the “30S IC formation MST signal, replicates” value (mRNA 0.25 µM) was 964.74 and 961.64 and 962.03. The “30S IC formation MST signal, Average” value (mRNA 0.5 µM) was 989.99, the “30S IC formation MST signal, replicates” value (mRNA 0.5 µM) was 993.30 and 987.37 and 989.30 and the “30S IC formation MST signal, Average” value (mRNA 1 µM) was 1011.86. For the same molecule, the “30S IC formation MST signal, replicates” value (mRNA 1 µM) was 1011.95 and 1011.22 and 1012.39, the “30S IC formation MST signal, Average” value (mRNA 2 µM) was 1036.12 and the “30S IC formation MST signal, replicates” value (mRNA 2 µM) was 1039.43 and 1034.52 and 1034.41.
